Source: the DeepSol protein solubility set

assay: soluble on expression in E. coli; label from the status in PepcDB or PDB records

| Sequence | soluble on expression in E. coli |
| --- | --- |
| MSHPWRSRGEKRTIMFGYTPSDTILKYLKDMRDLINRAILNAYSIARSNDDSLPSPITLRRSLKDYYDNNVAYAKHHINPVCRTAIAMLRSYKKNNGRLKVVKAKRLAMRIDSELAKIEDNRLRITIRPNVYEYVDIVDRNKKYSEYSKYPISEVLLTDNRVYITFITGSDDKPVIANNIIGFDLNFKSVDYTVIKDNRIAYVDSIDTYDIAKTQRDYERKRRKIQKHIRNPAKRIRKLKEAKHRQRNIVRDKLQKLTTNIVKNNEDKTFVFEDLTNIKKKGKKHKDHKRDGQSSKRFRTDINRWPYRLFQMFVEYKSKNETLYVDPEGTSSECPVCGGILEHPIWKMSKCDNCGATFDRDRLSSLSIAVRGLHLCGTPFSVSGSASWDSMKDNYLYRLEHHHHHH | soluble |
| LDDEDVDTVVDHCGDILEHFERLEEVPEVDAEPELVNVMRADEIADSLDQDDALANAPETEDGRF | soluble |
| MQEVKQWPVKIMLVHPKAPFLKGEKIVIAADCAVLVNRDIRDRFESDAVIIGCPMLEDPRRMFERIKMIVAESDAKLEVYTMEVPCCHALHLMVEKAKEEHGKQTESEKYIVRVSGAVEPYSKKIDESMIEAERRAHRGH | not soluble |
| MAKIYYDEDASLDILKDKVIAILGYGSQGHAHALNLRDSGLNVIIGLHEGSRSREKAKADGFEVYTPREAAKRADIIMFLIPDTVQPEVYKNEVEPELNSSKTLAFAHGFNIHFRQIVPPKDVDVFMVAPKGPGHLVRWMYTEGKGVPALVAIHQDASGTCKDKALAYAKGIGATRAGVIETTFKEETETDLFGEQMVLCGGVTALIKAGFETLVNAGYQPEVAYFECLHELKLIVDLIYEHGISGMRYSISDTAKYGDVTRGERIYKVVKPVMEKTLEEIQKGEFAREWILENKAGRPVYYALLERDREHLVEKVGEELRKMMPWLGKKELK | soluble |
| MKIGIVGATGYGGTELVRILSHHPHAEECILYSSSGEGNVYSEGYPHLTGLADQQLKPIDMNTIKHEIDIMFLAAPPGVSSELTPKLADAGITVIDLSGDLRIKEPAEYEKWYKRTAAPKAVIQEAVYGLAELNQLQIQQAKLIANPGCFPTAVLLGLAPLAQKKLLDESFVIVDAKTGVSGAGRKASMGTHFSELNDNFKIYKVNEHQHTPEIEQALNEWQPGLGPITFSAHLVPMTRGIMATMYTRLTCDLTADDLHDLYSEFYQDSYFVRVRPKGQYPQTKEVYGSNFCDIAVTLDERTNRVTIVSVIDNLMKGAAGQAVQNFNLMNGWNEETGLTIITPIYP | not soluble |
| MGSDKIHHHHHHMVKIAVLGLGRVGLRAAYNLASRGFDVLGLDASNDAVSRARSLGLEARLYDVEGRKAGEYLRGQRVVAAFIALPYPVASRAVAHLSSAGIPVVVASIKPLRIDPGVVRAPILTEVGVSPGLSNVILYSMAAETGGGVSARVYVGSFGAREDGLLSHASTWRVEEMLEQYVTPAKLIQDGSEAVADPLDPSLWMEYSDPEHGVLECFPSQGLAGFISRRGSLFKELMECSLRRRGHLKVVLTMRGLGLLDSTPLKVSGCIVRPFDMAVKLVETRYPPDVGDVAVFTVEARRGGRWETLARASLRHGGGWSASSKMVGGASSAFAEVFAAEGLSEEEPGIIYPEDLYELGLAEKLLSLLPSHGVSLEVG | not soluble |
| MTGATGFIGKYIIDNLLARGFHVRALTRTARAHVNDNLTWVRGSLEDTHSLSELVAGASVVVHCAGQVRGHKEEIFTRCNVDGSLRLMQAAKESGFCQRFLFISSLAARHPELSWYAKSKYVAEQRLAAMADEITLGVFRPTAVYGPGDKELKPLFDWMLRGLLPRLGAPDTQLSFLHVTDFAQAVGQWLSAETVQTQTYELCDGVAGGYDWQRVRQLAAKARCGSVRMVDIPLPVLTGLADISTALSRLAGKEPMLTRSKIRELTHADWSASNNRISEDINWFPGISLEHALRNGLF | not soluble |
| MGSDKIHHHHHHMIKVALLHFGFEDYTIELANSLSKYVDLTLINPKKLSDVCGDAFDPSIRVVSFKKPRIRDPRNLLSMNAMMRIIKDIQPDVLHVQETNDPWYDWTLLLNKMPPLVTTIHDVFRHPGDKVAVFGSEYTRRIAFYRSQQLIVHTHQLKKILIEQFNLPEGRVNVIPHGELGSLYQHRGDRSNQPRDPNTLLFFGRIWPYKGLKYLLEAMPLIAECVPEVKLIIAGRGENIKEYFPNGYDENRYEIINRLIPLEEVSNLFQRSTVTVLPYIEASQSGVAALSYGMGTLVVASDVGGLSEIVQHKKDGLLVPPRDVRALADAIICLLSDRDLQQKMQTAALARCQQDLNWSNIAAQTVEVYQKTMKPIHQ | not soluble |
| MAHHHHHHMAHGAAQCTLAAPGCVYLTPEQEEQLVDRLYTQSLLQKEATLAELDARYYPVTASQTISQETLQKSVQRQVDVEMERRQQRRKEMDAMAVAKAMGHASGSRAAASKKTVTAEETDVSVRRLYDDALAQKKARKAESERLYAFHPEDLKSAKMSKAALQESVNRMSKPKKTEFAVAEVNKIYGL | soluble |
| MGSDKIHHHHHHMHLSRDVVLLITHSGDFFTIDRVAEALAKKGVQPFRLDTDKFPLQVQLTAHFDKSQSHHTIEYDNHSISTEQVQAVWMRRIWEPNLSQELAPKFQEACIRESKATLDAFWDSLKGARWVDDLERINYANNKLRQLRIASEVGFVIPQTLVTNKAQAAREFFGQVNGKMVSKLLTTLSRSMEANSSFFLYTSIVKEKDLEDAESLRYCPMVFQEQIPKQMELRVVYVNGHVFVGALNADVYAATKADWRKPGVEVGAWQHHQLPDELVRRLQAFMGKFGLLFGSLDFILTPSGEYVFLEVNPIGEWGMLEKDLDLPIANAIADILLQN | not soluble |
| MNAGSDPVVIVSAARTIIGSFNGALAAVPVQDLGSTVIKEVLKRATVAPEDVSEVIFGHVLAAGCGQNPVRQASVGAGIPYSVPAWSCQMICGSGLKAVCLAVQSIGIGDSSIVVAGGMENMSKAPHLAYLRTGVKIGEMPLTDSILCDGLTDAFHNCHMGITAENVAKKWQVSREDQDKVAVLSQNRTENAQKAGHFDKEIVPVLVSTRRGLIEVKTDEFPRHGSNIEAMSKLKPYFLTDGTGTVTPANASGINDGAAAVVLMKKSEADKRGLTPLARIVSWSQVGVEPSIMGIGPIPAIKQAVTKAGWSLEDVDIFEINEAFAAVSAAIVKELGLNPEKVNIEGGAIALGHPLGASGCRILVTLLHTLERMGRSRGVAALCIGGGMGIAMCVQRE | soluble |
| MGSDKIHHHHHHMQRFKKWFLSIIKNFKQHEKIKIDLNNTKIDLNNTKIDLNNTKIDLNNTKIDLNNTKIDLNNTKIDLNNTKIDLNNTKIDLNNTKIELSQLKKEHYKVLDFHLRKITPQAFLEIVEIHLAESCNLNCFGCNHFSQIAEKEFPDIEIFKKDMQRLSEISKGIVGTFRLMGGEPLLNPNCIQFFDITRYFFPKSAIWLVTNGILLDKQNEDFWNSCQRNKMQIRPTKYPIKINWDLIKDKCDQYDIPLIFFNNGELEKTSWKFSLDPSGNCDNYHSFTNCSMANHCVQFKDGKLFTCTFPAHVQHFNKKYGNHFEVCEFDFIDIYKAKDYQEILFFLSKPIPFCRYCKVSQWAEIGKWRSSNKTKHEYLI | not soluble |
| MGSDKIHHHHHHMHSPRELALLYRQGKNITQLMRDERGLIHNSNEIIEISYDLQAGSYIESMGEAWMAEHNAEYCQQLAKVILSLCNPDSILEAGIGEATTLADLLPHLSKKISSYGFDISWSRVAYGKQWLQQQGISNTVLCTGNLCHIPFADNAVELVYTSHSLEPNGGNEAAILKELYRVTSKFLVLLEPGYELANKDAKHRMEQHGYCRNIKSIAQSLGYRILLHEFFPSSVNPLNPTVITIIEKPPSFEPAKHILACPKYKTPLENIENMLFSPESLMVYPIVGGIPCLGINNGLVASKFRELISKG | not soluble |
| MSLDSLNLNKHISGQFNAELESIRTQVMTMGGMVEQQLSDAITAMHNQDSELAKRVVEGDHQVNMMEVAIDEACVRIIAKRQPTASDLRLVMAIIKTIAELERIGDVADKICRTALEKFSQQHQPLLVSLESLGRHTVQMLHDVLDAFARMDLDEAVRIYREDKKVDQEYEGIVRQLMTYMMEDSRTIPSVLTALFCARSIERIGDRCQNICEYIFYFVKGQDFRHVGGDELDKLLAGKDPKEGHHHHHH | soluble |
| MKEKISEKEYKALIRKTGKEHFDGEKEEYGDGTVGVWTYELRKYKLKPPVKVKYVTQEQFQEYKDSNNQRLIKIENKVDKLVEIVQIHGEQIKAQGETLQLILQTLQKMSDRLDKMEKRIDKLESKLEHHHHHH | not soluble |
| MKIDYVSDLHINHWIPWNVNQIKWEKRTREIVNRLISNGNGEVLVIAGDFTEWNQQTLWVLDEAAKQYEKVYFTYGNHDLYLLSKSQKRKYSDSLGRLNDLIQKAADMKNVTPLIKTTETYKGKVFAGDVMWYLPKGIEGWDFFKGVSNDSNYIWLNGYNKVDGVRAMWKESMDWYETLENTQVDVFVSHVPPVHNPYSPFEPNTCYMVDVPFINAKHWVCGHDHLQAEFDKDGTSFHMNCIGYPYDYDNYPSVNVIPGEEVDSYKTFELKTFEIMAGDPLEHHHHHH | not soluble |
| MGSDKIHHHHHHMIVLFVDFDYFYAQVEEVLNPSLKGKPVVVCVFSGRFEDSGAVATANYEARKFGVKAGIPIVEAKKILPNAVYLPMRKEVYQQVSSRIMNLLREYSEKIEIASIDEAYLDISDKVRDYREAYNLGLEIKNKILEKEKITVTVGISKNKVFAKIAADMAKPNGIKVIDDEEVKRLIRELDIADVPGIGNITAEKLKKLGINKLVDTLSIEFDKLKGMIGEAKAKYLISLARDEYNEPIRTRVRKSIGRIVTMKRNSRNLEEIKPYLFRAIEESYYKLDKRIPKAIHVVAVTEDLDIVSRGRTFPHGISKETAYSESVKLLQKILEEDERKIRRIGVRFSKFIEAIGLDKFFDT | not soluble |
| VDICNHALLVGFGRVGSLLGEKLMAQGIPLVVVETSRTRVDELRERGISAVLGNAANEEIMELAHLDCARWLLLTIPNGYEAGEIVASAREKCPNIEIIARAHYDDEVDYIIDRGANQVVMGEREIARAMLRLLETPPAG | not soluble |
| SVSGLAILYLRRRRAPLARLRQAIQRCEFFVCYQPIVSLSDGRCVGAEALVRWRQQDGTLILPDQFIPLAERSGLILPITDQVIAASMRELGPLLVADRSLHIAINVSVKDIESGRLLDVLALALQDTGLYRKQLWIEATERSFMDARAAREHIVRLREAGYAVVIDDFGTGYSNLQYLQQLPLDALKIDKSFIDTVGRDVTNTAVASHIIDIAKELGMRTIAEGVEREEQLVYLRARGVDMAQGWLFSSP | not soluble |
| MNMNAKIIDQDNKGIGVRVHDNDETEHTVAVGFDGEIQGHSQDGYPDDPAKRTGKENEYVSQARRYAKYYVAKEKGYDVLPWDRDTAAMQRVQTAIESLSDEDFEKYFGTYFDQINSRLPNVTAPVPEPDAVGDDEFVLYLLDVYLDEAGRIEAVSDIHFLYLDDNRERQVVLGDQPLNRDPDARLQLKPNYLPSLEVAQEFFVYHLRCQIRDCYLLRGEEPPEQYRVIGPGLYDAATRYLYEDRPYRPYHKLHADIPGYSLEFDYGFGEQGKEMAKIAGAVADNK | not soluble |
| MAHHHHHHMLSTACRAPVRGRAYCGCNRGLVSFSFYSTFAGDRRGAGGDETSGANSGGSGDSGETPKASKATVEERRRMAKSWENAFFGRVHYEPGMHDRYQAALDAEVEEHATLDEKDRCDRLPNWPDDEETPLHEFLQLSDAAKKRYIVRRLTMGERRINYAPYYGSLLMMQHLNLGELMISDAEHLVRESGWMTECVASKIEAVRECASKIKFEYDLD | not soluble |
| MGSDKIHHHHHHMTEATYNFAYLDEQTKRMIRRAILKGIAIPGYQVPFASREMPMPYGWGTGGVQVTASILGPDDTLKVIDQGSDDTTNAISIRKFFAKTAGVATTTATPDASVIQTRHRIPETPLHEGQVLVYQVPIPEPLRYLEPRETETRRMHALAEYGLMHVKLYEDIAKFGHIATAYAYPVKVAGRYVMDPSPTPKFDNPKMDNCPALQLFGAGREKRIYAIPPYTQVVSLDFEDHPFTRYRQDGCCALCGADDSYLDEIVTDNAGTRMFVCSDTDYCEGRRAQGHTGSETAPMESAHA | not soluble |
